Experimental findings from patent WO2014196658A1 (dated 2014) are described below.

Experiment [1] has as its target T1, human aquaporin 4 (hAQP4) M23 isoform (human, UniProt P55087 1-323). Description: ELISA on plates coated with budded baculovirus expressing human AQP4 M23. For orientation: An ELISA detects its analyte on a solid surface through an enzyme-linked reagent.
Experiment [2] deals with T1, human aquaporin 4 (hAQP4) M23 isoform. As to the kind of experiment: cell ELISA on live CHO cells expressing hAQP4 M23, 37 °C 1 h, 4-parameter logistic fit.

As usually defined, the EC50 is the concentration at which the effect is half-maximal.

T1 sequence (P55087 whole entry, canonical isoform): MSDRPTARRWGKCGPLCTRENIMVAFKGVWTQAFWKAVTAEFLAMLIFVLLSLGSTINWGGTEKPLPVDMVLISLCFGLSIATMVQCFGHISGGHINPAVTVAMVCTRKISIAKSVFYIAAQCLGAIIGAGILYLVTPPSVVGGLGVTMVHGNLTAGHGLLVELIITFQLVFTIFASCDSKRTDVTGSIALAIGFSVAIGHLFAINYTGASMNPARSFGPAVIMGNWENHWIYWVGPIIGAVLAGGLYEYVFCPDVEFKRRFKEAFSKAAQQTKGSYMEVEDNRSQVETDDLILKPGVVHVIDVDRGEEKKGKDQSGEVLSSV

B1: anti-aquaporin 4 monoclonal antibody produced by hybridoma clone C9401 (antibody, V domains shown)
VH: QVQLQQSGPELVKPGASVRISCKASGYTFTNYYIHWVKQRPGQGLEWIGWIYPGNVNTKKNEKFKGKATLTADKSSSTAYMQLSSLTSEDSAVYFCARGVPYAFWGQGTLVTVSA
VL: DIVLTQSPASLAVSLGQRATISCRASKSVDSYGNSFMHWYQQKPGQPPKLLIYRASNLESGIPARFSGSGSRTDFTLTINPVEADDVATYYCQQSNEDPPTFGGGTKLEIKR
notes: also called C9401 antibody; original antibody (C9401)
As for B1, the values for the EC50 in experiment [1] and in experiment [2] were 0.166 nM and 0.162 nM, respectively.

B2: anti-aquaporin 4 monoclonal antibody produced by hybridoma clones D15107 and D15129 (same antibody) (antibody, V domains shown)
VH: QVQLKESGPGLVAPSQSLSITCTVSGFSLTSYGVHWVRQPPGKGLEWLGVIWAGRRTNYNSALMSRLSISKDNSKSQVFLKMNSLQTDDTAMYYCARGDGIFPYWGQGTLVTVSA
VL: DIVLTQSPGSLAVSLGQRATISCRASESVDSYGNSFMHWYQQKSGQPPKLLIYRASNLESGIPARFSGSGSRTDFTLTINPVEADDVATYYCQQSNEDPFTFGSGTKLEIKR
notes: Mouse antibody from hybridomas; They are therefore one molecule here, and the rows keep the printed label; also called D15107 (D15129); D15107/D15129
For the molecule B2, in experiment [2], the EC50 amounted to 0.15 nM.

B3: anti-aquaporin 4 monoclonal antibody produced by hybridoma clone D12092 (antibody, V domains shown)
VH: QVQLKESGPGLVAPSQSLSITCTVSGFSLTRYGVHWVRQPPGKGLEWLVVIWSDGSTTYNSALKSRLSISKDNSKSQVFLKMNSLQTDDTAIYYCARGPPFAYWGQGTLVTVST
VL: DIVLTQSPASLAVSLGQRATISCRASKSVDSYGNSFMHWYQQKPGQPPKLLIYRASNLESGIPARFSGSGSRTDFTLTINPVEADAVATYYCQQSYEDPPTFGAGTKLEIKR
notes: Mouse antibody from a hybridoma; also called D12092 antibody
The molecule B3 came in with a concentration giving a half-maximal response (EC50) in experiment [2] of 0.116 nM. This EC50 and that of the molecule before are within 1.5-fold of each other.
